Test results: US20190382484A1 (Chugai, published 2019)
Where a chain is given by its changes, count along the chain named.

B1: MRAH-DA303v2/MRAL-k0 (antibody, human IgG1, kappa)
heavy: QVQLQESGPGLVRPSQTLSLTCTVSGYSITSDHAWSWVRQPPGRGLEWIGYISYSGITTYNPSLKSRVTMLRDTSKNQFSLRLSSVTAADTAVYYCARSLARTTAMDYWGQGSLVTVSSASTKGPSVFPLAPSSKSTSGGTAALGCLVKDYFPEPVTVSWNSGALTSGVHTFPAVLQSSGLYSLSSVVTVPSSSLGTQTYICNVNHKPSNTKVDKKVEPKSCDKTHTSPPSPAPEYQWGPMVFLFPPKPKDTLMISRTPEVTCVVVDVSDEEPEVKFNWYVDGVEVHNAKTKPREEQYNATYRVVSVLTVLHQDWLNGKEYKCKVSNKALPAPIEKTISKAKGQPREPQVYTLPPSRKELTKNQVSLTCLVKGFYPSDIAVEWESNGQPENNYKTTPPYLDSDGSFFLYSDLTVDKSRWQQGNVFSCSVMHEALHNHYTQKSLSLSP
light: not shown
notes: Antibody-half molecule (one H chain, one L chain); L chain MRAL-k0; also called A1; antibody-half molecule A1
B2: MRAH-DA405v2/MRAL-k0 (antibody, human IgG1, kappa)
heavy: B1 heavy with D411T
light: not shown
notes: Antibody-half molecule (one H chain, one L chain); also called A3; antibody-half molecule A3
B3: MRAH-DB220v2/MRAL-k0 (antibody, human IgG1, kappa)
heavy: QVQLQESGPGLVRPSQTLSLTCTVSGYSITSDHAWSWVRQPPGRGLEWIGYISYSGITTYNPSLKSRVTMLRDTSKNQFSLRLSSVTAADTAVYYCARSLARTTAMDYWGQGSLVTVSSASTKGPSVFPLAPSSKSTSGGTAALGCLVKDYFPEPVTVSWNSGALTSGVHTFPAVLQSSGLYSLSSVVTVPSSSLGTQTYICNVNHKPSNTKVDKKVEPKSCDKTHTSPPSPAPELLGGPSVFLFPPKPKDTLMISRTPEVTCVVVDVSHEEPEVKFNWYVDGVEVHNAKTKPREEQYNSTYRVVSVLTVLHQDWLNGKEYKCKVSNDALPMPIEETISKAKGQPREPQVYTLPPSRDELTKNQVSLTCLVKGFYPSDIAVEWESNGQPENNYKTTPPYLDSDGSFFLYSDLTVDKSRWQQGNVFSCSVMHEALHNHYTQESLSLSP
light: not shown
notes: Antibody-half molecule (one H chain, one L chain); also called B1; antibody-half molecule B1
B4: MRAH-DB402v2/MRAL-k0 (antibody, human IgG1, kappa)
heavy: B3 heavy with D411H
light: not shown
notes: Antibody-half molecule (one H chain, one L chain); also called B2; antibody-half molecule B2
B5: MRAH-DB430v2/MRAL-k0 (antibody, human IgG1, kappa)
heavy: B3 heavy with E359L
light: not shown
notes: Antibody-half molecule (one H chain, one L chain); also called B5; antibody-half molecule B5
B6: MRAH-DA430v2/MRAL-k0 (antibody, human IgG1, kappa)
heavy: B1 heavy with E359L
light: not shown
notes: Antibody-half molecule (one H chain, one L chain); also called A5; antibody-half molecule A5
B7: MRAH-DA402v2/MRAL-k0 (antibody, human IgG1, kappa)
heavy: B1 heavy with D411H
light: not shown
notes: Antibody-half molecule (one H chain, one L chain); also called A2; antibody-half molecule A2
B8: MRAH-DB405v2/MRAL-k0 (antibody, human IgG1, kappa)
heavy: B3 heavy with D411T
light: not shown
notes: Antibody-half molecule (one H chain, one L chain); also called B3; antibody-half molecule B3
B9: MRAH-DA424v2/MRAL-k0 (antibody, human IgG1, kappa)
heavy: B1 heavy with E359N
light: not shown
notes: Antibody-half molecule (one H chain, one L chain); also called antibody-half molecule A4
B10: MRAH-DB424v2/MRAL-k0 (antibody, human IgG1, kappa)
heavy: B3 heavy with E359N
light: not shown
notes: Antibody-half molecule (one H chain, one L chain); also called antibody-half molecule B4
B11: MRAH-DA303v2/MRAL-k0 + MRAH-DB220v2/MRAL-k0 (antibody, human IgG1, kappa)
heavy 1: B1 heavy
heavy 2: B3 heavy
light: not shown
notes: Mixture of the two antibody-half molecules, which form a non-covalent heterodimer when captured on antigen; also called A1 + B1
B12: MRAH-DA430v2/MRAL-k0 + MRAH-DB430v2/MRAL-k0 (antibody, human IgG1, kappa)
heavy 1: B1 heavy with E359L
heavy 2: B3 heavy with E359L
light: not shown
notes: Mixture of the two antibody-half molecules, which form a non-covalent heterodimer when captured on antigen; also called A5 + B5
B13: MRAH-DA405v2/MRAL-k0 + MRAH-DB405v2/MRAL-k0 (antibody, human IgG1, kappa)
heavy 1: B1 heavy with D411T
heavy 2: B3 heavy with D411T
light: not shown
notes: Mixture of the two antibody-half molecules, which form a non-covalent heterodimer when captured on antigen; also called A3 + B3
B14: MRAH-DA424v2/MRAL-k0 + MRAH-DB424v2/MRAL-k0 (antibody, human IgG1, kappa)
heavy 1: B1 heavy with E359N
heavy 2: B3 heavy with E359N
light: not shown
notes: Mixture of the two antibody-half molecules, which form a non-covalent heterodimer when captured on antigen; also called A4 + B4
B15: MRAH-DA402v2/MRAL-k0 + MRAH-DB402v2/MRAL-k0 (antibody, human IgG1, kappa)
heavy 1: B1 heavy with D411H
heavy 2: B3 heavy with D411H
light: not shown
notes: Mixture of the two antibody-half molecules, which form a non-covalent heterodimer when captured on antigen; also called A2 + B2
B16: EGLVH-wtIgG4C4/EGLVL-k0 (antibody, V domains shown)
VH: QDQLVQSGAEVKKPGASVKVSCKASGFNIKDTYIQWVRQAPGQGLEWMGRIDPLRKQTKYREKFEGRVTITADTSTNTAYMELSSLRSEDTAVYYCVRSGREFDYWGQGTLVTVSS
VL: DIQMTQSPSSLSASVGDRVTITCRASQDIHKYIAWYQQKPGQAPRLLIQYTSTLQPGVPSRFSGSGSGTDYTFTISSLQPEDIATYYCLQYEQLRTFGGGTKVEIKR
notes: also called control of the half molecule state of antibody

target: T1, FcγRIIIa extracellular domain (UniProt P08637 17-208, limits assumed); assay: SPR (Biacore T200), half molecule captured via biotinylated antigen peptide on CAP chip, FcγR as analyte
T1 construct: extracellular domain; Purified over HisTrap, so a His tag is implied
T1 sequence (P08637 17-208 limits assumed): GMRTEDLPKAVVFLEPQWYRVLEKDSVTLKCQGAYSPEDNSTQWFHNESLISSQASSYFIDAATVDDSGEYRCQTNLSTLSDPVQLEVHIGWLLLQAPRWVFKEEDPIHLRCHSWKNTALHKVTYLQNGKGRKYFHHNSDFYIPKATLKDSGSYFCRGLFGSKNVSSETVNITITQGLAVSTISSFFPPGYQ

binding result | Binder
no binding | B1
no binding | B2
no binding | B3
no binding | B4
no binding | B5
no binding | B6
no binding | B7
no binding | B8
no binding | B9
no binding | B10

target: T1, FcγRIIIa extracellular domain; assay: SPR (Biacore T200), mixed half molecules captured via biotinylated antigen peptide on CAP chip, FcγR as analyte, 25 C
Description: Interaction analysis of antibody-half molecules of interest and FcγR was performed using Biacore (registered trademark) T200. Biotin CAPture Kit, Series S (GE Healthcare) was used for the measurement, and HBS-EP+10X (GE Healthcare) diluted 1/10th was used as a running buffer. The measurement temperature was 25° C. For the sensor chip, Series S Sensor Chip CAP (GE Healthcare) onto which previously-biotinylated antigen peptides were allowed to interact and thereby immobilized was used. These chips were allowed to capture the antibody-half molecules of interest and then interact with FcγR diluted with the running buffer. The antigens and antibody-half molecules captured on the chip were washed as described in the instructions attached to the kit, and the chips were regenerated and reused.

Kd | Binder
6.1 nM | B11
53 nM | B12
1.2 nM | B13
10 nM | B14
0.95 nM | B15

Target: the molecule itself
Assay: size exclusion chromatography (G3000SWXL), absorbance 280 nm; self-association of the half molecule [panel b]
Description: The protein concentration of the antibody-half molecules was 0.25 mg/mL, and 80 μL was injected.
Evaluation of the molecular weight of the prepared antibody-half molecules A and B was carried out by size exclusion chromatography.

Binder | binding result
B16 | no binding (tested: 0.25 mg/mL injected)
